Source: article PMC3828344

Test system: vesicular stomatitis virus particle (Vesicular stomatitis virus)
Assay: electrochemical aptasensor (SWV)

Sequence: GCTAGCGAATTCCGTACGAAGGGCGAATTCCACATTGGGCTGCAGCCCGGGGGATCC [thiolated AG3 (aptasensor)]
- binding signal (% of current decrease): 9.1
